Data published in article PMC3086721 (Biochemical and biophysical research communications, 2011).
Like-named read-outs stand apart in the source and are kept apart here.

B1: E2-25K UBA domain (residues G154-N200) (domain or fragment, UniProt P61086 154-200, looked up)
chain: GAPVSSPEYTKKIENLCAMGFDRNAVIVALSSKSWDVETATELLLSN
B2: Full-length E2-25K (enzyme, UniProt P61086 1-200, looked up)
chain: MANIAVQRIKREFKEVLKSEETSKNQIKVDLVDENFTELRGEIAGPPDTPYEGGRYQLEIKIPETYPFNPPKVRFITKIWHPNISSVTGAICLDILKDQWAAAMTLRTVLLSLQALLAAAEPDDPQDAVVANQYKQNPEMFKQTARLWAHVYAGAPVSSPEYTKKIENLCAMGFDRNAVIVALSSKSWDVETATELLLSN

Key:
Wild-type ubiquitin [1] = target: T1, Wild-type ubiquitin (UniProt P0CG48 1-76); assay: NMR titration
Wild-type ubiquitin [2] = target: T1, Wild-type ubiquitin; assay: NMR titration; remark: listed apart in the source

| Binder | Kd (Wild-type ubiquitin [1]) | Kd (Wild-type ubiquitin [2]) |
| --- | --- | --- |
| B1 | ~1200 µM | – |
| B2 | – | ~1000 µM |
